Here are results for 1 substance from paper PMC9461429.

In this assay the target is Human SARS-CoV-2_Wuhan S (SmT1), C-terminally fused to the resistin trimerization domain (SARS-CoV-2 (Wuhan-Hu-1) | not stated). In words: SPR.

Sequence of Human ACE2 (aa18-615), His6-tagged monomeric ACE2 (Q9BYF1 18-615): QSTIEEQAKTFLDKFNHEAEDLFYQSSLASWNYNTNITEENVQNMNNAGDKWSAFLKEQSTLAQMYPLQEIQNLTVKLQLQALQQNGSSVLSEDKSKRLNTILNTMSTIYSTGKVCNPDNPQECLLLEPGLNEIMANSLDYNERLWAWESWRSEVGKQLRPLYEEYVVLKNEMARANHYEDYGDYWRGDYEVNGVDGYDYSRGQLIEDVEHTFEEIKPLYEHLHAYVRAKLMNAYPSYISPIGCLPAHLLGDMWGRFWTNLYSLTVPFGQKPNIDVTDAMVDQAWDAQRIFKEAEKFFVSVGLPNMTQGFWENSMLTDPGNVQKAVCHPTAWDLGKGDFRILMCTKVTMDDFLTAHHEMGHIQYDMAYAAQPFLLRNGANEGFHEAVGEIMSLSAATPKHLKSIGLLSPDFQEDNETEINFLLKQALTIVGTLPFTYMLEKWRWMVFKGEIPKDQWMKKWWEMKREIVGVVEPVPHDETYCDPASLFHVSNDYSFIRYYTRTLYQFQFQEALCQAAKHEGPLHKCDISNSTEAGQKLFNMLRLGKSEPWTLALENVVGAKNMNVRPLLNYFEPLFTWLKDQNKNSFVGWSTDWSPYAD

Substance “Human ACE2 (aa18-615), His6-tagged monomeric ACE2 (from UniProt Q9BYF1-1 18-615) (receptor)” returned a Kd of 165 nM.
